Measured values reported in patent US20200317768A1 (published 2020).

B1: M103205H795-MY209/M103202L889-SK1 (antibody, human IgG1, kappa)
heavy: QVTLKESGPVLVKPTETLTLTCTVSGIDLSHDDISWVRQAPGKGLEWVGIISYAGSTYYASWAKGRLTISKDTSKNQVVLTMTNMDPVDTATYYCARGVPAYSHGGDLWGQGTLVTVSSASTKGPSVFPLAPSSKSTSGGTAALGCLVKDYFPEPVTVSWNSGALTSGVHTFPAVLQSSGLYSLSSVVTVPSSSLGTQTYICNVNHKPSNTKVDKKVEPKSCDKTHTCPPCPAPELLNGPSVFLFPPKPKDTLMISRTPEVTCVVVDVSDEDPEVKFNWYVDGVEVHNAKTKPREELYNSTYRVVSVLTVLHQDWLNGKEYKCKVSNTALPKPIEKTISKAKGQPREPQVYTLPPSREEMTKNQVSLTCLVKGFYPSDIAVEWESNGQPENNYKTTPPVLDSDGSFFLYSKLTVDKSRWQQGNVFSCSVMHEALHNHYTQKSLSLSP
light: DIVMTQSPATLSLSPGERATLSCTSSQSVYHANWLSWFQQKPGQPPKLLIYWASTLAYGVPSRFSGSGSGTDFTLTISSLQPEDAATYYCAGGYGGGRYAFGQGTKVEIKRTVAAPSVFIFPPSDEQLKSGTASVVCLLNNFYPREAKVQWKVDNALQSGNSQESVTEQDSKDSTYSLSSTLTLSKADYEKHKVYACEVTHQGLSSPVTKSFNRGEC
notes: Substitutions introduced into M103205H795-SG1, expressed with M103202L889-SK1 as light chain; EU numbering
B2: M103205H795-MY283/M103202L889-SK1 (antibody, human IgG1, kappa)
heavy: QVTLKESGPVLVKPTETLTLTCTVSGIDLSHDDISWVRQAPGKGLEWVGIISYAGSTYYASWAKGRLTISKDTSKNQVVLTMTNMDPVDTATYYCARGVPAYSHGGDLWGQGTLVTVSSASTKGPSVFPLAPSSKSTSGGTAALGCLVKDYFPEPVTVSWNSGALTSGVHTFPAVLQSSGLYSLSSVVTVPSSSLGTQTYICNVNHKPSNTKVDKKVEPKSCDKTHTCPPCPAPELLTGPSVFLFPPKPKDTLMISRTPEVTCVVVDVSDEDPEVKFNWYVDGVEVHNAKTKPREELYNSTYRVVSVLTVLHQDWLNGKEYKCKVSNKALPKPIEKTISKAKGQPREPQVYTLPPSREEMTKNQVSLTCLVKGFYPSDIAVEWESNGQPENNYKTTPPVLDSDGSFFLYSKLTVDKSRWQQGNVFSCSVMHEALHNHYTQKSLSLSP
light: DIVMTQSPATLSLSPGERATLSCTSSQSVYHANWLSWFQQKPGQPPKLLIYWASTLAYGVPSRFSGSGSGTDFTLTISSLQPEDAATYYCAGGYGGGRYAFGQGTKVEIKRTVAAPSVFIFPPSDEQLKSGTASVVCLLNNFYPREAKVQWKVDNALQSGNSQESVTEQDSKDSTYSLSSTLTLSKADYEKHKVYACEVTHQGLSSPVTKSFNRGEC
notes: as for B1

Tests used:
Assay in all cases: SPR (BIACORE); KD of SG1 / KD of variant;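 note: relative to parent M103205H795-SG1 carrying the SG1 human heavy chain constant region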
[1] = target: T1, cynomolgus monkey FcγRIIa1 extracellular domain with C-terminal His-tag (cynomolgus monkey)
T1 construct: also called cyno FcgRIIa1; cynoFcγRIIa1
T1 chain: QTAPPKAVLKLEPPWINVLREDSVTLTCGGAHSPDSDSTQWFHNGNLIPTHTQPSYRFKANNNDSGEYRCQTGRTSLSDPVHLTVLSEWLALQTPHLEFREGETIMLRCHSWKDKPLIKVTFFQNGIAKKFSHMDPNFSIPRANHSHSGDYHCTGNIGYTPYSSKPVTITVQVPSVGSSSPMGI

[2] = target: T2, cynomolgus monkey FcγRIIa2 extracellular domain with C-terminal His-tag (cynomolgus monkey)
T2 construct: also called cyno FcgRIIa2; cynoFcγRIIa2
T2 chain: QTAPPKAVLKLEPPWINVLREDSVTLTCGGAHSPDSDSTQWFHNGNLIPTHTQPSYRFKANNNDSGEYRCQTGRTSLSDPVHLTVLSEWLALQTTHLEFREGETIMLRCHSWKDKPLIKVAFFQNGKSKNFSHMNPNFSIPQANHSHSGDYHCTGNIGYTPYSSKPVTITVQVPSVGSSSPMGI

[3] = target: T3, cynomolgus monkey FcγRIIa3 extracellular domain with C-terminal His-tag (cynomolgus monkey)
T3 construct: also called cyno FcgRIIa3; cynoFcγRIIa3
T3 chain: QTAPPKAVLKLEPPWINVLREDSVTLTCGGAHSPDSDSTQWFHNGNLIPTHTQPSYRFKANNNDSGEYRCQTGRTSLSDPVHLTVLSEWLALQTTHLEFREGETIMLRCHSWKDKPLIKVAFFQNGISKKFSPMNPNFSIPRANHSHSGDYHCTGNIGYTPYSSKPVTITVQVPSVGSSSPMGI

[4] = target: T4, cynomolgus monkey FcγRIIb extracellular domain with C-terminal His-tag (cynomolgus monkey)
T4 construct: also called cyno FcgRIIb; cynoFcγRIIb
T4 chain: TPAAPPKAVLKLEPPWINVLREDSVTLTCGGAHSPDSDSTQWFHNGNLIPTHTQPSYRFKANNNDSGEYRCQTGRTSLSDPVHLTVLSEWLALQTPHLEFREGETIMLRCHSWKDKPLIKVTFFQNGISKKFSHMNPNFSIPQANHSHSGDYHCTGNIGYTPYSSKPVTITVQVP

[5] = target: T5, cynomolgus monkey FcγRIIIaS extracellular domain with C-terminal His-tag (cynomolgus monkey, UniProt Q8SPW2 21-206 at identity 1.00))
T5 construct: also called cyno FcgRIIIaS; cynoFcγRIIIaS
T5 chain: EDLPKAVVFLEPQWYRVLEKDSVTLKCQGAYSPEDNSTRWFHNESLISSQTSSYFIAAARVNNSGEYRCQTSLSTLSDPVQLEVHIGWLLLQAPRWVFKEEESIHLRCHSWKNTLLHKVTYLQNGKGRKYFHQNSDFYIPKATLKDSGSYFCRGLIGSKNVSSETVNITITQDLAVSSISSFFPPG

[6] = target: T6, human FcγRIIaH extracellular domain with C-terminal His-tag (human, UniProt P12318 34-217)
T6 construct: also called human FcgRIIaH; FcγRIIa (type H)
T6 sequence: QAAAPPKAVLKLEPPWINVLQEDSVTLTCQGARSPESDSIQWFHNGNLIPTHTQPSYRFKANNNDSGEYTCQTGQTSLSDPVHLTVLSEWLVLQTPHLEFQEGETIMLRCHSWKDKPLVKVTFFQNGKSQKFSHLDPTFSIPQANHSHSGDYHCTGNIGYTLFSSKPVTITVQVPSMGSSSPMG

[7] = target: T7, human FcγRIIb extracellular domain with C-terminal His-tag (human, UniProt P31994 43-217)
T7 construct: also called human FcgRIIb
T7 sequence: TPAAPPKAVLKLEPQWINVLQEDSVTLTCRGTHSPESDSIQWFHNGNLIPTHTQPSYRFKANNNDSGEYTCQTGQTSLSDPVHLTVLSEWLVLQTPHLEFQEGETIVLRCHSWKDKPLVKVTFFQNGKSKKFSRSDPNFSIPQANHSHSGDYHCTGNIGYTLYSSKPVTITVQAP

[8] = target: T8, human FcγRIIIaV extracellular domain with C-terminal His-tag (human, UniProt P08637 17-208)
T8 construct: also called human FcgRIIIaV
T8 sequence (P08637 17-208 F176V): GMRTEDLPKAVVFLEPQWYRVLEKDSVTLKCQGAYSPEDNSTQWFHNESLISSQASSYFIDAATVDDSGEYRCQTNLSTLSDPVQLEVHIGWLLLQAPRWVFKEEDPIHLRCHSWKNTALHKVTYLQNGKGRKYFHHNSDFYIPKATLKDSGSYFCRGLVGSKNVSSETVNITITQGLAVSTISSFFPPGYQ

| Binder | KD fold (SG1 = 1) [1] | KD fold (SG1 = 1) [2] | KD fold (SG1 = 1) [3] | KD fold (SG1 = 1) [4] | KD fold (SG1 = 1) [5] | KD fold (SG1 = 1) [6] | KD fold (SG1 = 1) [7] | KD fold (SG1 = 1) [8] |
| --- | --- | --- | --- | --- | --- | --- | --- | --- |
| B1 | 5.1 fold | 7.4 fold | 8.9 fold | 9.5 fold | 0.16 fold | 1.2 fold | 9.2 fold | 0.06 fold |
| B2 | 2.3 fold | 3.2 fold | 3.5 fold | 4.3 fold | 0.16 fold | 4.9 fold | 2.6 fold | 0.14 fold |
